Data as given in PMC6294806.
Values joined by “and” are separate entries in the source; they are usually repeats but may differ in a detail not shown here. Equal entries are not always repeated.

Tests used:
[1] = target: 8pG receptor: eight tandemly repeated protein G C2 domains fused to an HA epitope and the immunoglobulin C2-type extracellular-transmembrane-cytosolic domains of mouse B7-1 (mB7) (not stated (streptococcal cDNA) | mouse); assay: ELISA; 3.3-biotin (1 μg/ml serially diluted in DMEM/BSA) added to paraformaldehyde-fixed 8pG cell-based microplates, room temperature 1 hour; streptavidin-HRP and ABTS, absorbance 405 nm
[2] = target: Protein G of the commercial protein G-based microplate (UniProt P19909); assay: ELISA; sandwich ELISA on commercial protein G-based microplates coated with anti-IFN-α antibody (2 μg/ml); AGP3-biotin 1 μg/ml, 1 hour at room temperature in DMEM/BSA; streptavidin-HRP and ABTS; background absorbance

| fold absorbance over the commercial protein G-based microplate, 0.01 ug/mL 3.3-biotin [1] [fold] | fold absorbance over the commercial protein G-based microplate, 0.04 ug/mL 3.3-biotin [1] [fold] | fold absorbance over the commercial protein G-based microplate, 0.11 ug/mL 3.3-biotin [1] [fold] | fold absorbance over the commercial protein G-based microplate, 1 ug/mL 3.3-biotin [1] [fold] | fold absorbance over the traditional polystyrene-based microplate, 0.01 ug/mL 3.3-biotin [1] [fold] | fold absorbance over the traditional polystyrene-based microplate, 0.04 ug/mL 3.3-biotin [1] [fold] | fold absorbance over the traditional polystyrene-based microplate, 0.11 ug/mL 3.3-biotin [1] [fold] | fold absorbance over the traditional polystyrene-based microplate, 1 ug/mL 3.3-biotin [1] [fold] | other [1] | background OD 405 [2] | Substance |
| --- | --- | --- | --- | --- | --- | --- | --- | --- | --- | --- |
| 6.8 | 6.2 | 2.7 | 1.2 | 23 | 12.4 | 8.8 | 1.5 | 1.6 fold and 4.3 fold | – | Biotin-conjugated monoclonal mouse anti-PEG antibody 3.3 (IgG type) |
| – | – | – | – | – | – | – | – | – | 1.29 | Biotin-conjugated monoclonal mouse anti-PEG IgM antibody AGP3 |
